Holding throughout (experiment): radioligand binding
For experiment [1], the target named is MD-2Flag.His6/FlagTLR4ecd D299G.T399I complex (human, UniProt Q9Y6Y9 19-160; O00206 24-631, D299G | T399I).
The target in experiment [2] is MD-2Flag.His6/FlagTLR4ecd (wild type) complex (human, UniProt Q9Y6Y9 19-160; O00206 24-631).
In experiment [3] the target is FlagTLR4ecd, wild type (extracellular domain of human TLR4, residues 24-631) (human, UniProt O00206 24-631).
In experiment [4] the target is full-length D299G.T399I TLR4 expressed on HEK293T cells without MD-2 (human, UniProt O00206 24-839, D299G | T399I).
Sequence of full-length D299G.T399I TLR4 expressed on HEK293T cells without MD-2 (O00206 24-839 D299G/T399I): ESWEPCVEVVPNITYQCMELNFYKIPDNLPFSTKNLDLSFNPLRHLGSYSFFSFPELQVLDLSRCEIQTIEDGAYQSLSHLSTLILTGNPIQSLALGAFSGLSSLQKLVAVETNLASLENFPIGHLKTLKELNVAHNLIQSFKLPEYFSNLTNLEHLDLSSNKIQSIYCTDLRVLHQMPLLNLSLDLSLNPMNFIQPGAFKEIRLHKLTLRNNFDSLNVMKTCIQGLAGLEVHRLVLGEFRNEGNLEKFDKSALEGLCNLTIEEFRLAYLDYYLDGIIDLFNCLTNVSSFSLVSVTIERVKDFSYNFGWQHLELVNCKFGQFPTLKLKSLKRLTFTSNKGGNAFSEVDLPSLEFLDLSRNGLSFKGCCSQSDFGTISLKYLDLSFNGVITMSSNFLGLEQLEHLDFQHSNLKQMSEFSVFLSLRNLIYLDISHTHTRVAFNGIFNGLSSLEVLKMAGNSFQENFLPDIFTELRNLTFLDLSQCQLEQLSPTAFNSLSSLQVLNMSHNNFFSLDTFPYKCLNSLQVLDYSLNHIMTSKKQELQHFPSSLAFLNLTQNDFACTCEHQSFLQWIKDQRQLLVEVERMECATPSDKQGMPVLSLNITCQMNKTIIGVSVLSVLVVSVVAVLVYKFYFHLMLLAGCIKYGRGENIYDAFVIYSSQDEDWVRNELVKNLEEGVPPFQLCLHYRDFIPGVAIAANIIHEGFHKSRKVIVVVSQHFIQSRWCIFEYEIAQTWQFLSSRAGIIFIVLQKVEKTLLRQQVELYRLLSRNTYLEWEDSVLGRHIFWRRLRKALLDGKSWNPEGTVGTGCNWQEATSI

Sequence of MD-2Flag.His6/FlagTLR4ecd D299G.T399I complex (O00206 24-631 D299G/T399I, one chain of several): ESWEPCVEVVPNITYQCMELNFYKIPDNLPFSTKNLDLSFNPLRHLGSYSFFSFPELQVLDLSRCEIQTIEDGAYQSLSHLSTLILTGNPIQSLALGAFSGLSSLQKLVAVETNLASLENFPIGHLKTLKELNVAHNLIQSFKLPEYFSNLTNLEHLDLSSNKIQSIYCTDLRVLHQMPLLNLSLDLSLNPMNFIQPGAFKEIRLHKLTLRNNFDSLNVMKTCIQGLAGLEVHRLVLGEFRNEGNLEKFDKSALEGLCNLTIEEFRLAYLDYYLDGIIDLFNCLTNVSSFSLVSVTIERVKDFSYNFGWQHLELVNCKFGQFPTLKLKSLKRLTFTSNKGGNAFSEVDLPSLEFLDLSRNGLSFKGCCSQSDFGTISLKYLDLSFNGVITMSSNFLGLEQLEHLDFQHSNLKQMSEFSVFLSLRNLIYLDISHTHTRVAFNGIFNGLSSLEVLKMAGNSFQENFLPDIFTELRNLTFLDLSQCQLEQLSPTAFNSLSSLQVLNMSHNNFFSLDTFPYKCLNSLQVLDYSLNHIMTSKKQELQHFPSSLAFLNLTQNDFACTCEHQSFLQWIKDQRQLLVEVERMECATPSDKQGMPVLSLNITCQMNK
Sequence of MD-2Flag.His6/FlagTLR4ecd (wild type) complex (O00206 24-631, one chain of several): as the sequence (O00206 24-631 D299G/T399I, one chain of several) above, with G276D, I376T counted along it
Sequence of FlagTLR4ecd, wild type (extracellular domain of human TLR4, residues 24-631) (O00206 24-631): as the sequence (O00206 24-631 D299G/T399I, one chain of several) above, with G276D, I376T counted along it

B1: monomeric [3H]LOS·sCD14 complex (endotoxin·CD14) (natural protein, UniProt P08571 20-345, looked up)
chain: TTPEPCELDDEDFRCVCNFSEPQPDWSEAFQCVSAVEVEIHAGGLNLEPFLKRVDADADPRQYADTVKALRVRRLTVGAAQVPAQLLVGALRVLAYSRLKELTLEDLKITGTMPPLPLEATGLALSSLRLRNVSWATGRSWLAELQQWLKPGLKVLSIAQAHSPAFSCEQVRAFPALTSLDLSDNPGLGERGLMAALCPHKFPAIQNLALRNTGMETPTGVCAALAAAGVQPHSLDLSHNSLRATVNPSAPRCMWSSALNSLNLSFAGLEQVPKGLPAKLRVLDLSCNRLNRAPQPDELPEVDNLTLDGNPFLVPGTALPHEGSMN
For B1, the figures for the Kd in experiment [1] and in experiment [2] were 0.186 nM and 0.196 nM, respectively.

B2: monomeric [3H]LOS·MD-2His6 complex (endotoxin·MD-2) (natural protein)
chain: QKQYWVCNSSDASISYTYCDKMQYPISINVNPCIELKRSKGLLHIFYIPRRDLKQLYFNLYITVNTMNLPKRKEVICRGSDDDYSFCRALKGETVNTTISFSFKGIKFSKGKYKCVVEAISGSPEEMLFCLEFVILHQPNSN
Take B2: the dissociation constant Kd in experiment [3] is 0.221 ± 0.043 nM. The “fold reduction of cell binding against wt TLR4” value in experiment [4] was ≥ 10 fold.

By Kd is commonly meant a measure of binding affinity in units of concentration.
